These results are taken from paper PMC4766470.

The target of assay [1] is neurotensin receptor 1 (wild type), expressed in Sf9 insect cells (rat) (UniProt P20789). The assay is described as follows: radioligand binding; saturation binding; diluted Sf9 membranes with [3H]-labelled ligand at 30-0.02 nM, 4 °C, 2 h, 50 mM Tris-HCl pH 7.4, 1 mM EDTA, 0.1% BSA; nonspecific binding with 1000-fold excess of unlabelled ligand; filtration; apparent constants.

Assay [2] has as its target NTR1-Y06, expressed in Sf9 insect cells (rat) (UniProt P20789). The description is as above.

In the case of “[3,11-tyrosyl-3,5-3H(N)]-neurotensin (peptide)”, the Kd in assay [1] and in assay [2] was 3 nM throughout.
